# Test results as given in PMC7159911 (Science Advances, 2020).
# B1: rBAT (SLC3A1), human, N-terminal 10x His tag (natural protein, UniProt Q07837-1 1-685, looked up)
# chain: MAEDKSKRDSIEMSMKGCQTNNGFVHNEDILEQTPDPGSSTDNLKHSTRGILGSQEPDFKGVQPYAGMPKEVLFQFSGQARYRIPREILFWLTVASVLVLIAATIAIIALSPKCLDWWQEGPMYQIYPRSFKDSNKDGNGDLKGIQDKLDYITALNIKTVWITSFYKSSLKDFRYGVEDFREVDPIFGTMEDFENLVAAIHDKGLKLIIDFIPNHTSDKHIWFQLSRTRTGKYTDYYIWHDCTHENGKTIPPNNWLSVYGNSSWHFDEVRNQCYFHQFMKEQPDLNFRNPDVQEEIKEILRFWLTKGVDGFSLDAVKFLLEAKHLRDEIQVNKTQIPDTVTQYSELYHDFTTTQVGMHDIVRSFRQTMDQYSTEPGRYRFMGTEAYAESIDRTVMYYGLPFIQEADFPFNNYLSMLDTVSGNSVYEVITSWMENMPEGKWPNWMIGGPDSSRLTSRLGNQYVNVMNMLLFTLPGTPITYYGEEIGMGNIVAANLNESYDINTLRSKSPMQWDNSSNAGFSEASNTWLPTNSDYHTVNVDVQKTQPRSALKLYQDLSLLHANELLLNRGWFCHLRNDSHYVVYTRELDGIDRIFIVVLNFGESTLLNLHNMISGLPAKMRIRLSTNSADKGSKVDTSGIFLDKGEGLIFEHNTKNLLHRQTAFRDRCFVSNRACYSSVLNILYTSC
# modifications: five glycosylation sites in the extracellular domain (residues 111 to 685)
# Biological target: the molecule itself
# Assay: cryo-EM structure
protein,measurement,value
B1,stoichiometry N,2
